Publication PMC9915745 (ArXiv, 2023)

Target: the molecule itself
Test: SEC-MALS

B1: E. coli periplasmic chaperone HdeA, wild type (natural protein)
chain: ADAQKAADNKKPVNSWTCEDFLAVDESFQPTAVGFAEALNNKDKPEDAVLDVQGIATVTPAIVQACTQDKQANFKDKVKGEWDKIKKDM
modifications: native disulfide between Cys18 and Cys66
Question: B1 was tested. Which “stoichiometry N” value did it give?
Answer: Its value is 2.
